Reference: patent US20210079037A1, “LIGHT-SWITCHABLE POLYPEPTIDE AND USES THEREOF” (TECHNISCHE UNIVERSITÄT MÜNCHEN, priority 2017, published 2021)
Each block holds one molecule with its values, some of them ahead of it. Numbered stars: 1 amine (or outer) side, 2 acyl side, 3 side chain; on linkers, the order of the positions; unused ones are H or OH. Square brackets hold non-standard residues; d marks the D form. Caf = 4′-carboxyphenylazophenylalanine, O=C([C@H](Cc1ccc(/N=N/c2ccc(C(=O)[*:3])cc2)cc1)N[*:1])[*:2]

Test system: mouse anti-6×His antibody alkaline phosphatase (AP) conjugate
Test: ELISA for light-induced reversible binding of an immunoglobulin to ProtL^Caf-ABD fusion proteins
Details: for change in enzyme activity of bound Ig-AP conjugate after irradiation with UV light: UV light at 365 nm, 5 min; for affinity for the IgG (ELISA signal): ground state / illuminated with visible light
Procedure: ELISA was performed at ambient temperature in a 96-well Maxisorb microtiter plate (Nunc, Langenselbold, Germany).
Then, the wells were blocked with […] Roti-Block (Carl Roth, Karlsruhe, Germany) diluted 1:10 in ddH2O for 1 h and washed three times with PBS containing 0.1% v/v Tween 20 (PBS/T). After that, the purified ProtL^Caf-ABD fusion protein from Example 11 was applied in a dilution series in PBS/T and incubated for 1 h to effect complex formation between the ABD moiety and the pre-adsorbed HSA. The wells were then washed three times with PBS/T and incubated with 50 μl of a 1:1000 dilution in PBS/T of the aforementioned mouse anti-6×His Ig-AP conjugate.
All subsequent washing steps were performed in the dark. […] After 5 min at 25° C., the absorbance at 405 nm was measured using a SpectraMax 250 microtiter plate reader (Molecular Devices, Sunnyvale, Calif., USA).

B1: ProtL^Caf369: ProtL-ABD fusion protein modified with Caf at position 369 (protein)
chain: MKEEVTIKVNLIFADGKTQTAEFKGTFEEATAKAYAYADLLAKE[Caf]GEYTADLEDGGNTINIKFAGGAVDANSLAEAKVLANRELDKYGVSDYYKNLINNAKTVEGVKALIDEILAALP
change in enzyme activity of bound Ig-AP conjugate after irradiation with UV light: much less signal decrease

B2: ProtL^Caf360: ProtL-ABD fusion protein modified with Caf at position 360 (protein)
chain: MKEEVTIKVNLIFADGKTQTAEFKGTFEEATAKAY[Caf]YADLLAKENGEYTADLEDGGNTINIKFAGGAVDANSLAEAKVLANRELDKYGVSDYYKNLINNAKTVEGVKALIDEILAALP
change in enzyme activity of bound Ig-AP conjugate after irradiation with UV light: much less signal decrease

B3: ProtL^Caf364: ProtL-ABD fusion protein modified with Caf at position 364 (protein)
chain: MKEEVTIKVNLIFADGKTQTAEFKGTFEEATAKAYAYAD[Caf]LAKENGEYTADLEDGGNTINIKFAGGAVDANSLAEAKVLANRELDKYGVSDYYKNLINNAKTVEGVKALIDEILAALP
change in enzyme activity of bound Ig-AP conjugate after irradiation with UV light: much less signal decrease

B4: ProtL^Caf347: ProtL-ABD fusion protein with Caf at position 347 and mutation Tyr361Ala (protein)
chain: MKEEVTIKVNLIFADGKTQTAE[Caf]KGTFEEATAKAYAAADLLAKENGEYTADLEDGGNTINIKFAGGAVDANSLAEAKVLANRELDKYGVSDYYKNLINNAKTVEGVKALIDEILAALP
change in enzyme activity of bound Ig-AP conjugate after irradiation with UV light: much less signal decrease

Kd (ground state (no UV), curve fit of the ELISA data, read-out: dissociation constant for the complex with the anti-6×His antibody): ~140 nM | affinity for the IgG (ELISA signal): showed affinity for the IgG | affinity for the IgG (ELISA signal) (listed as Caf337): high affinity
B5: ProtL^Caf337: ProtL-ABD fusion protein with Caf at position 337 and mutations Tyr361Asn and Leu365Ser (SEQ ID NO: 86) (protein)
chain: MKEEVTIKVNLI[Caf]ADGKTQTAEFKGTFEEATAKAYANADLSAKENGEYTADLEDGGNTINIKFAGGAVDANSLAEAKVLANRELDKYGVSDYYKNLINNAKTVEGVKALIDEILAALP
change in enzyme activity of bound Ig-AP conjugate after irradiation with UV light: clear decrease | dissociation constant for the complex with the anti-6×His antibody (after irradiation with UV light at 365 nm): too low to deduce a dissociation constant

B6: ProtL^Caf368: ProtL-ABD fusion protein modified with Caf at position 368 (protein)
chain: MKEEVTIKVNLIFADGKTQTAEFKGTFEEATAKAYAYADLLAK[Caf]NGEYTADLEDGGNTINIKFAGGAVDANSLAEAKVLANRELDKYGVSDYYKNLINNAKTVEGVKALIDEILAALP
change in enzyme activity of bound Ig-AP conjugate after irradiation with UV light: much less signal decrease

B7: ProtL-ABD: unmodified protein L domain B1 fused to a human albumin-binding domain (SEQ ID NO: 61) (protein)
chain: MKEEVTIKVNLIFADGKTQTAEFKGTFEEATAKAYAYADLLAKENGEYTADLEDGGNTINIKFAGGAVDANSLAEAKVLANRELDKYGVSDYYKNLINNAKTVEGVKALIDEILAALP
modifications: ProtL-ABD fusion protein
change in enzyme activity of bound Ig-AP conjugate after irradiation with UV light: did not reveal any change in binding activity
